Reference: the supplement of paper PMC10126150
± gives the standard deviation of the averaged measurements.

What follows are sequences tested on ATP (assay: switch fluorescence ratio, 500 uM ATP over buffer (Cy3 cluster intensity, sum of 5 cycles each) (fold (ratio)); higher = stronger signal-on switching upon ATP binding; sequences stand for … in TCGTCGGCAGCGTCAGATGTGTATAAGAGACAGTTTTTTTTTTTTTTTTTTTTTTTTT…TC). Conditions: aptamer strand: ATP DNA aptamer (quencher-CACCTGGGGGAGTATTGCGGAGGAAGG + anchor), 100 nM annealed; ATP concentration: 500 uM.
Outline: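 Clusters carrying Cy3-labelled switching strands on a modified Illumina MiSeq flow-cell were annealed to 100 nM quencher-labelled ATP aptamer and imaged in selection buffer. They were imaged again after 15 min with 500 uM ATP at 22 °C, over five buffer/ATP cycles with NaOH stripping and re-annealing in between. For each cluster, the fluorescence ratio is the summed Cy3 intensity of the target cycles divided by that of the buffer cycles, averaged per switch-domain sequence. Clusters outside 100-1000 RFU were left out.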
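Also: ATP exposure 15 min at 22 °C before imaging.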

| Sequence | switch fluorescence ratio |
| --- | --- |
| GGGGGTAGTT | 1 ± 0.032 |
| ACAGTATGGG | 1.03 ± 0.021 |
| AGAGAACGCT | 0.967 ± 0.035 |
| ATCCATTCA | 1.02 ± 0.0094 |
| GAGAAGCTAT | 0.987 ± 0.015 |
| GTTGAAGAAA | 0.998 ± 0.072 |
| GGTACTTAGG | 1.06 ± 0.031 |
| AAGTTGTCTG | 0.978 ± 0.056 |
| GAGGGGGGTG | 1 ± 0.028 |
| ACTTGTGGGC | 0.973 ± 0.045 |
| GCTGGCAATT | 1.027 ± 0.0069 |
| GGCGAAAGGA | 1 ± 0.041 |
| GTAAGGGGGC | 0.984 ± 0.011 |
| TCGGAGGGGA | 1 ± 0.02 |
| TACTGCTCTA | 1.022 ± 0.01 |
| GGGGGGAGCG | 1 ± 0.021 |
| ATTGATATTT | 0.998 ± 0.019 |
| TAGATCTTAC | 1.05 ± 0.046 |
| TACGAGCCGC | 0.989 ± 0.057 |
| ATGTCGACTA | 1.02 ± 0.021 |
| ACGGTTGGT | 1.02 ± 0.012 |
| GTTTACGTTC | 1.02 ± 0.049 |
| GGGTGAAATG | 0.994 ± 0.023 |

| Sequence | switch fluorescence ratio |
| --- | --- |
| ACATTTGACG | 1.05 ± 0.017 |
| GCATTAAGTG | 1 ± 0.024 |
| CTTTGTTGG | 0.9646 ± 0.0024 |
| GGCTTAAGCA | 0.988 ± 0.025 |
| TATTATTTGT | 0.994 ± 0.053 |
| CTTTTTTTAG | 1.0383 ± 0.001 |
| GATGTGGGTG | 0.9957 ± 0.0054 |
| CAACTCCGGA | 1.204 ± 0.0066 |
| GTTGTCGGGG | 1.02 ± 0.018 |
| ACGGGACATT | 1.19 ± 0.033 |
| AGTATTGCTC | 1.01 ± 0.024 |
| ATGTGTTACG | 1.05 ± 0.012 |
| TTTGTGGAGG | 0.999 ± 0.023 |
| GATTTTGTTA | 1.01 ± 0.025 |
| CGGGGCTGTG | 1 ± 0.013 |
| AGTGGTAAAG | 1.012 ± 0.0029 |
| GATAGATTTA | 0.9977 ± 0.0033 |
| TATGTACACA | 1.02 ± 0.059 |
| CGGTTGGCCT | 0.9978 ± 0.0069 |
| GTAATAGGAG | 1.02 ± 0.039 |
| ATTCAGCCGC | 1.62 ± 0.083 |
| GGCGCCGCTG | 1.016 ± 0.003 |
| TTCGGGGTTA | 1.01 ± 0.018 |

| Sequence | switch fluorescence ratio |
| --- | --- |
| AGATGGTAGG | 0.986 ± 0.023 |
| GTTTTTAGCA | 0.9719 ± 0.005 |
| GGCCTAAATA | 0.998 ± 0.014 |
| GGTGCAACAT | 1.03 ± 0.051 |
| TGGACGTGAT | 1.83 ± 1 |
| TTAAGAACGG | 1.03 ± 0.075 |
| GGTTAAGAAA | 1.021 ± 0.0081 |
| AACCGCGATG | 2.25 ± 0.1 |
| GGCGGGATTG | 0.959 ± 0.041 |
| CGGATCTGAG | 1.01 ± 0.078 |
| TATGCTTATT | 1 ± 0.024 |
| TTATACGGTT | 1.01 ± 0.012 |
| CGTGATGGGG | 1.04 ± 0.071 |
| TTTTTTGCTA | 1.01 ± 0.026 |
| AATTCGTCGG | 1.02 ± 0.045 |
| AGGTTGTCGT | 0.997 ± 0.035 |
| TAAAAATATG | 0.9907 ± 0.0013 |
| AAAATGGTCA | 1.0102 ± 0.00092 |
| AAGGTCTTTG | 1.01 ± 0.043 |
| GAGGGTAAGA | 1.02 ± 0.062 |
| TCTGGATTCA | 0.986 ± 0.027 |
| TAGTGGCTGG | 1 ± 0.026 |
| TTTTCTTTTG | 1 ± 0.024 |

| Sequence | switch fluorescence ratio |
| --- | --- |
| GGGTAAGAAA | 0.9865 ± 0.0041 |
| GTGGGGGGCA | 0.991 ± 0.033 |
| GAAGGAATAG | 1.66 ± 0.92 |
| CAATTCGAGC | 0.988 ± 0.015 |
| GTTTTGGGCC | 1.02 ± 0.05 |
| AGGAAAAAGT | 1.02 ± 0.039 |
| CGTATAAATC | 1.01 ± 0.043 |
| TTGATCTAAT | 1 ± 0.011 |
| TGGTTGGAGC | 0.997 ± 0.029 |
| CTTATAATTT | 0.9947 ± 0.0082 |
| TTCTGTGGTG | 1.01 ± 0.028 |
| CGTATGGCCA | 1.0198 ± 0.00072 |
| ATAAAATTTT | 1 ± 0.03 |
| ATGTTTATTT | 0.998 ± 0.041 |
| GGCTGCATGC | 1.08 ± 0.023 |
| TGCTAGATAA | 1 ± 0.039 |
| CGGGTTTAAA | 1 ± 0.011 |
| CGACTTGAAA | 1.04 ± 0.041 |
| GGCCTATGTC | 1.04 ± 0.011 |
| TGGTGCTTGG | 1.04 ± 0.013 |
| TGCGGGCCAT | 1.027 ± 0.0067 |
| GTGTACGGGG | 0.971 ± 0.026 |
| GGTTCGTGTC | 0.974 ± 0.016 |

| Sequence | switch fluorescence ratio |
| --- | --- |
| TGGGGATTTA | 1.003 ± 0.0072 |
| CTTTCCGAAG | 2.72 ± 0.03 |
| TTTGAGGTAA | 1.008 ± 0.0083 |
| CACTCAGGGA | 1.04 ± 0.046 |
| GAGCGAGCTC | 0.988 ± 0.021 |
| GGTGCTATCT | 0.992 ± 0.015 |
| GGCTGAACGT | 1 ± 0.012 |
| AAAATCTGGT | 1.03 ± 0.015 |
| GGGGCCCGAA | 0.981 ± 0.035 |
| GGACGGCCGC | 1.06 ± 0.037 |
| TTAAGCTCGG | 0.989 ± 0.037 |
| GGGACTAGAG | 0.9744 ± 0.0061 |
| TAGACTTGTT | 0.996 ± 0.02 |
| CTCAGCGGGT | 1.49 ± 0.68 |
| GGAGCTAGGG | 1.056 ± 0.0058 |
| CTATGATCTG | 0.989 ± 0.065 |
| ATAAGGTAG | 1.004 ± 0.0026 |
| CTAGCCTGCT | 0.994 ± 0.038 |
| TAATAATGAG | 0.981 ± 0.011 |
| TTTGCAGAAT | 1.006 ± 0.0094 |
| GGGGTAGCGC | 0.974 ± 0.018 |
| TTTTTAATTT | 0.993 ± 0.023 |
| GCAGGAAAAC | 1.04 ± 0.018 |

| Sequence | switch fluorescence ratio |
| --- | --- |
| AAGTGAGCAG | 1.012 ± 0.0072 |
| GCGGGGCTAG | 0.989 ± 0.024 |
| GGAGGCGGTG | 1.048 ± 0.0039 |
| TGGTAAAGCT | 0.994 ± 0.017 |
| ATGGGGTGGG | 0.985 ± 0.026 |
| TTATGCTAAA | 0.994 ± 0.04 |
| TCTGTCCG | 1.05 ± 0.14 |
| ATGAGTGCTC | 0.98 ± 0.0086 |
| TAACAAGGCA | 0.985 ± 0.013 |
| GGATATAGTC | 1 ± 0.036 |
| CCATTGAGAC | 1.04 ± 0.029 |
| TGCGTTGGAG | 1.08 ± 0.057 |
| TTTGTTAATT | 0.996 ± 0.039 |
| CTTGCGTCAC | 1.18 ± 0.044 |
| ATACAGGGGG | 1.02 ± 0.067 |
| TCTATTGAGC | 1.032 ± 0.0049 |
| TCGAGGCGGG | 1.18 ± 0.21 |
| GATGATTTGG | 1.02 ± 0.021 |
| TTGATGTGGT | 0.997 ± 0.084 |
| AGGCGCCGCA | 1.01 ± 0.018 |
| ATCGATATTG | 0.991 ± 0.029 |
| GGCATAGGGG | 1.01 ± 0.026 |
| AAACTGTAAA | 1.08 ± 0.045 |

| Sequence | switch fluorescence ratio |
| --- | --- |
| GGGGGCAGCC | 1.05 ± 0.083 |
| TTGTGAAAAA | 0.972 ± 0.026 |
| CAATATTGCC | 1.02 ± 0.051 |
| TTGGTGGCGG | 0.978 ± 0.028 |
| TCCAAGGGGT | 1.06 ± 0.044 |
| CCGCCACCTG | 1.56 ± 0.059 |
| GTATAAGGGG | 0.977 ± 0.026 |
| GGTCCAGGTT | 1.09 ± 0.068 |
| AATCGGGTGC | 1.05 ± 0.054 |
| TCTGTTTGTA | 0.9816 ± 0.0075 |
| CGATAACATG | 0.9984 ± 0.0051 |
| TGATTTTTTA | 0.992 ± 0.025 |
| CTATTAATAC | 1.63 ± 0.096 |
| TGCAGAAGGT | 0.992 ± 0.03 |
| GGATATTTGG | 0.992 ± 0.029 |
| TCCTTGTGGT | 0.973 ± 0.037 |
| AACTTGGCGC | 1.01 ± 0.057 |
| TTGGGTCTCC | 1.03 ± 0.027 |
| GCAGCGGCTG | 0.994 ± 0.014 |
